From ChEMBL document CHEMBL1153321, “Approaches to the simultaneous inactivation of metallo- and serine-beta-lactamases” (Bioorg Med Chem Lett, 2009) come the findings set out here.

A value given as a limit tells only on which side of the number the result lay.

Conditions in all cases: Enterobacter cloacae
Substrate in data set [1]: CC(=O)OCC1=C(C(=O)O)N2C(=O)/C(=N/O)[C@H]2S(=O)(=O)C1
Substrate in data set [2]: CC(=O)OCC1=C(C(=O)O)N2C(=O)/C(=N/O)[C@H]2SC1
Substrate in data set [3]: CC(=O)OCC1=C(C(=O)O)N2C(=O)[C@@H](N(O)C(=O)Cc3ccccc3)[C@H]2SC1
Substrate in data set [4]: CC(=O)OCC1=C(C(=O)O)N2C(=O)[C@@H](N(O)C=O)[C@H]2SC1
Substrate in data set [5]: CC(=O)OCC1=C(C(=O)O)N2C(=O)[C@@H](N)[C@H]2SC1
Substrate in data set [6]: CC(=O)OCC1=C(C(=O)O)N2C(=O)[C@@H](NC(=O)Cc3cccs3)[C@H]2SC1
Substrate in data set [7]: CC(=O)OCC1=C(C(=O)O)N2C(=O)[C@@H](NC=O)[C@H]2SC1
Substrate in data set [8]: CC(=O)OCC1=C(C(=O)O)N2C(=O)[C@@H](NO)[C@H]2SC1
Substrate in data set [9]: CC1=C(C(=O)O)N2C(=O)/C(=N/O)[C@H]2S(=O)(=O)C1

B1: Beta-lactamase (Enterobacter cloacae), P05364 (protein)
chain: MMRKSLCCALLLGISCSALATPVSEKQLAEVVANTITPLMKAQSVPGMAVAVIYQGKPHYYTFGKADIAANKPVTPQTLFELGSISKTFTGVLGGDAIARGEISLDDAVTRYWPQLTGKQWQGIRMLDLATYTAGGLPLQVPDEVTDNASLLRFYQNWQPQWKPGTTRLYANASIGLFGALAVKPSGMPYEQAMTTRVLKPLKLDHTWINVPKAEEAHYAWGYRDGKAVRVSPGMLDAQAYGVKTNVQDMANWVMANMAPENVADASLKQGIALAQSRYWRIGSMYQGLGWEMLNWPVEANTVVEGSDSKVALAPLPVAEVNPPAPPVKASWVHKTGSTGGFGSYVAFIPEKQIGIVMLANTSYPNPARVEAAYHILEALQ
In the case of B1, the Km (usually the concentration of substrate that gives half-maximal velocity) in data set [1] is above 200 µM; in [2], 366 µM; in data set [3], 5 µM; in [4] it was 240 µM; in [5], 290 µM; in data set [6] it was 15.4 µM. In addition, the Km in data set [7] was 315 µM; in data set [8] it was 1450 µM; in data set [9] it was 4.5 µM. Further, the kcat (usually the number of substrate molecules converted per active site and unit of time at saturation) in data set [2] came to 2.56 s⁻¹; in [3] it was 0.49 s⁻¹; in data set [4] it was 0.32 s⁻¹; in data set [5], 0.46 s⁻¹; in [6], 690 s⁻¹; in data set [7] it was 1180 s⁻¹. Also, the kcat in [8] turned out to be 1.6 s⁻¹; in [9], 0.54 s⁻¹.
